From paper PMC5932034, “Structures of chaperone-substrate complexes docked onto the export gate in a type III secretion system” (Nature Communications, 2018) come the findings set out here.

Holding throughout (details): both partners purified
The target of experiment [1] is T1, cytoplasmic domain of Salmonella enterica serovar Typhimurium FlhA (FlhA^C) (Salmonella enterica serovar Typhimurium …, UniProt P40729 362-692).
T1 construct: FlhA, globular cytoplasmic domain, Salmonella enterica serovar Typhimurium ST313, residues 362-692 (36.4 kDa); also called export gate platform protein; source: E. coli BL21(DE3), purified (Ni Sepharose, TEV tag removal, Superdex 75)
T1 sequence: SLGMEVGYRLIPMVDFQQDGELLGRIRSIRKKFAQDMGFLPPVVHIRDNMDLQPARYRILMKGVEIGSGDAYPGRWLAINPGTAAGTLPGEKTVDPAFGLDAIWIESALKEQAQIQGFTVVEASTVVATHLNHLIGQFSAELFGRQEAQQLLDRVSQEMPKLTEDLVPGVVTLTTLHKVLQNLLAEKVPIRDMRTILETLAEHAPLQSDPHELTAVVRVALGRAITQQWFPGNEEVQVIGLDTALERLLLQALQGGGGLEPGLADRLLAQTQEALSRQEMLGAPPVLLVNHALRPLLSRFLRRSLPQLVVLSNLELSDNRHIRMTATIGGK
In words: NMR titration; unlabelled partner added to isotopically labelled FlhA^C (and unlabelled FlhA^C to labelled chaperone–substrate complex); 25 °C; 50 mM NaPi pH 6.8, 300 mM NaCl, 0.05% NaN3; typically 0.3 mM labelled protein.

A further experiment deals with T2, FliS (UniProt P26609 1-135).
T2 construct: FliS, flagellar chaperone of flagellin FliC; Used free in the NMR titration; in the crystal structure it stands as the FliS part of the fused chain m10; also called flagellar chaperone FliS; substrate-free FliS; source: E. coli BL21(DE3), purified (Ni Sepharose, TEV tag removal, Superdex 75)
T2 sequence: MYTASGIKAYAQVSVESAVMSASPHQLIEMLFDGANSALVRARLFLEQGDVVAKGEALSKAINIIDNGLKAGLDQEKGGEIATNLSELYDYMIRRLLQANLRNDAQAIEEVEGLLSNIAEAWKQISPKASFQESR
The experiment in a line: crystal structure; ternary complexes of FlhA^C with the fused chaperone–substrate constructs; proteins at 10 g/L.

Experiment [2] deals with T1, cytoplasmic domain of Salmonella …. The experiment in a line: ITC; FlhA^C and variants (0.1–0.2 mM) in the cell, FliT-FliD, FliS-FliC and variants (1.0–2.0 mM) in the syringe; 25 °C; 50 mM NaPi pH 6.8, 300 mM NaCl, 0.05% NaN3; one-site binding model. (In general: Isothermal titration calorimetry measures the heat released or taken up as one component is titrated into another.)

For the next experiment, the target named is T3, FliT (Salmonella enterica serovar Typhimurium …, UniProt P0A1N2 1-122).
T3 construct: FliT, flagellar chaperone of FliD, Salmonella enterica serovar Typhimurium ST313; Used free in the NMR titration; in the structures it stands as the FliT part of the fused chain m9; also called flagellar chaperone FliT; substrate-free FliT; source: E. coli BL21(DE3), purified (Ni Sepharose, TEV tag removal, Superdex 75)
T3 sequence: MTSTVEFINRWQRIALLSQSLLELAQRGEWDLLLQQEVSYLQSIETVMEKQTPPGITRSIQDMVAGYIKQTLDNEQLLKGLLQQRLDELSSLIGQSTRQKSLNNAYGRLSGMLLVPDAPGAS
The experiment in a line: crystal structure; ternary complexes of FlhA^C with the fused chaperone–substrate constructs; proteins at 10 g/L.

By Kd is commonly meant the constant that tells how readily two partners part at equilibrium.

B1: FlgN (natural protein)
chain: MTRLSEILDQMTTVLNDLKTVMDAEQQQLSVGQINGSQLQRITEEKSSLLATLDYLEQQRRLEQNAQRSANDDIAERWQAITEKTQHLRDLNQHNGWLLEGQIERNQQALEVLKPHQEPTLYGADGQTSVSHRGGKKISI
notes: FlgN, chaperone of FlgK and FlgL, Salmonella enterica serovar Typhimurium ST313; also called chaperone FlgN; FlgN without substrate; source: E. coli BL21(DE3), purified (Ni Sepharose, TEV tag removal, Superdex 75)
In the case of B1, in experiment [1], the binding result is reported as “binds”.

B2: FliC^C (FliC residues 454–495) (domain or fragment)
chain: IEDSDYATEVSNMSRAQILQQAGTSVLAQANQVPQNVLSLLR
notes: FliC^C: flagellin FliC residues 454-495;; source: E. coli BL21(DE3), purified; stands as a part of the fused chain m10
As to B2, in the experiment with FliS, the binding result is given as “binds”.

B3: FliS−FliC chaperone–substrate complex (non-fused) (complex)
chain 1: T2 sequence
chain 2: […]
notes: FliS; FliC, flagellin; Complex formed beforehand and added to FlhA^C; source: E. coli BL21(DE3), purified (Ni Sepharose, TEV tag removal, Superdex 75)
The molecule B3 yielded a Kd in experiment [2] of approximately 8 µM.

B4: FliD^C (last 40 C-terminal residues of FliD) (domain or fragment)
chain: SIDETVARYKAQFTQLDTMMSKLNNTSSYLTQQFTAMNKS
notes: source: E. coli BL21(DE3), purified; stands as a part of the fused chain m9
For B4, in the experiment with FliT, the binding result is “binds”.
